Changes are numbered by the printed parent chain. Where two headings read alike, the source gives them in different places.
How the values were obtained:
[1] = molecular target: T1, PE labeled CAIX protein (UniProt Q16790 38-414); assay: FACS binding
[2] = molecular target: T1, PE labeled CAIX protein; assay: FACS binding; remark: listed apart in the source
[3] = molecular target: T2, CAIX (UniProt Q16790 38-414)
[4] = molecular target: T2, CAIX; remark: listed apart in the source
[5] = molecular target: T2, CAIX; remark: listed apart in the source

B1: anti-CAIX (G36) CAR (scFv, V domains shown)
VH: EVQLVQSGGGVVQPGGSLRLSCAASGFPFSSYAMSWVRQAPGKGLEWVSAISANGGTTYYADSVKGRFTISRDNSKNTLYLQMNSLRAEDTAVYYCANNGNYRGAFDIWGQGTMVTVSS
VL: QSVLTQPPSVSGAPGQRVTISCTGSSSNIGAGFDVHWYQQLPGTAPKLLIYGNTNRPSGVPDRFSGSKSGTSASLAITGLQAEDETDYYCQSYDSRLSAWVFGGGTKLTVLG
B1 gave an EC50 [1] of 0.132 µg/mL and an EC50 [2] of 0.132 µg/mL.

B2: G10 (antibody, V domains shown)
VH: B1 VH with E1Q, V11L
VL: QSVLTQPPSVSGAPGQRVTISCTGSSSNIGAGYDVHWYQQLPGTAPKLLIYGNSNRPSGVPDRFSGSKSGSSASLAITGLQAEDEAHYYCQSYDRSLSWVFGGGTKLTVLG
With B2 the Kd [3] was 1.62 nM, the Kd [4] was 1.62 nM and the Kd [5] was 1.62 nM.

B3: G57 (antibody, V domains shown)
VH: QVQLVQSGGGVVQPGRSLRLSCAASGFTFSSYGMHWVRQAPGKGLEWVAVISYDGSNKYYADSVKGRFTISRDNSKNTLYLQMNSLRAEDTAVYYCAREAPYSSSLDAFDIWGQGTMVTVSS
VL: QSVLTQPPSVSGAPGQRVTISCTGSSSNIGRGYNVHWYQQLPGTAPKLLIYGNSNRPSGVPDRFSGSSSGNTASLTITGAQAEDEADYYCHSRDNNGHHIFGGGTKLTVLS
In the case of B3, the Kd [3] is reported as 4.25 nM, the Kd [4] is reported as 4.25 nM and the Kd [5] is reported as 4.25 nM.

B4: G27 (antibody, V domains shown)
VH: QVTLKESGGGVVQPGTSLRLSCAASGFTFSNYAMTWVRQAPGKGLEWVGLISYDGSVTHYTDSVKGRFTISRDNAKNSLYLQMNTLRADDTAVYYCARGSGYQEHWGQGTLVTVSS
VL: LPVLTQPPSVSVAPGQTARITCGGNNIGSKSVEWYQQKPGQAPVLVIYYDSDRPSGIPERFSGSNSGNTATLTISRVEAGDEADYYCQVWDSSSDHHVVFGGGTKLTVLG
B4 showed a Kd [3] of 25.1 nM, a Kd [4] of 25.1 nM and a Kd [5] of 25.1 nM.

B5: G36 (antibody, V domains shown)
VH: B1 VH
VL: B1 VL
Binder B5 has a Kd [3] of 3.22 nM, a Kd [4] of 3.22 nM and a Kd [5] of 3.22 nM.

B6: G9 (antibody, V domains shown)
VH: QVQLQESGGGLVQPGGSLRLSCAASGFTFSSYAMSWVRQAPGKGLEWVSAISGSGGSTYYADSVKGRFTISRDNSKNTLYLQMNSLRAEDTAVYYCARSHSSGGFDYWGQGTLVTVSS
VL: B1 VL with A31R, F33Y, D34N, T86G, R96S
In the case of B6, the Kd [3] is reported as 99.6 nM, the Kd [4] is reported as 99.6 nM and the Kd [5] is reported as 99.6 nM.

B7: G37 (antibody, V domains shown)
VH: B1 VH with E1Q
VL: B1 VL with V18I, S26R, G32D, F33Y, G52A, T54N, Y89F, R96S, L108V
B7 gave a Kd [3] of 1.89 nM, a Kd [4] of 1.89 nM and a Kd [5] of 1.89 nM.

B8: G39 (antibody, V domains shown)
VH: not shown
VL: QSVLTQPPSVSGAPGQRVTISCTGSSSNIGRGYNVHWYQQLPGTAPKLLIYDNTNRPSGVPARFSGSKSATSASLAITGLQADDEADYYCQSYDSGLRWVFGGGTKLTLLR
B8 gave a Kd [3] of 3.43 nM, a Kd [4] of 3.43 nM and a Kd [5] of 3.43 nM.

B9: G6 (antibody, V domains shown)
VH: QVQLVQSGGGLVQPGGSLRLSCAASEFTFGTYAMTWVRQAPGKGLEWVSAVSGSGGSTYYADSVKGRFTISRDNSRNTLYLQMNSLRADDTAVYYCARGPVLRYGFDIWGQGTMVIVSS
VL: QSVLTQPPSVSGAPGQRITISCTGSRSNIGADYDVHWYQQLPGTAPKLLIYANNNRPSGVPGRFSASKSGTSASLAISGLQAEDEADYYCQSYDSSLRAWVFGGGTKLAVLG
B9 showed a Kd [3] of 25.9 nM, a Kd [4] of 25.9 nM and a Kd [5] of 25.9 nM.

B10: G40 (antibody, V domains shown)
VH: B6 VH with Q5V, E6Q, R98T, S99Y, H100G, S101D, S102Y, G104S, F105L
VL: B9 VL with I18V, R26S, D32G, G62D, A66G, S78T
B10 was tested, and the Kd [3] was 21.8 nM, the Kd [4] was 21.8 nM and the Kd [5] was 21.8 nM.

B11: G45 (antibody, V domains shown)
VH: B1 VH with E1Q, V11L, Q13R, M114T
VL: QSVLTQPPSVSGAPGQRITISCTGSSSNIGAGYDVHWYQQVPGKAPKVVIYGNNNRPSGVPDRFSGSKSGASASLAITGLQTEDEADYYCQSYDKSLTWVFGGGTKVTVLG
Work on B11 yielded a Kd [3] of 12.5 nM, a Kd [4] of 12.5 nM and a Kd [5] of 12.5 nM.

B12: G119 (antibody, V domains shown)
VH: B1 VH with E1Q, V11L, T116I
VL: B1 VL with F33Y, T78I, E83D, T86A, R96T, S98R, A99V, V101M
With B12 the Kd [3] was 1.49 nM, the Kd [4] was 1.49 nM and the Kd [5] was 1.49 nM.

B13: G125 (antibody, V domains shown)
VH: EVQLVESGGGVVQPGRSLRLSCAASGFTFSSYGMHWVRQAPGKGLEWVSAISGSGGSTYYADSVKGRFTISRDNAKNTLYLQMNSLRAEDTAVYYCARAAVTGGFDPWGQGTLVTVSS
VL: QPGLTQPPSVSVAPGQTARITCGGDNIGRKSVHWYQQRPGQAPILVIRDDRDRPSGIPERFSGSSSVNTATLIISRVEAGDEADYYCQVWDSSSKHYVFGPGTKVTALG
B13 was tested, and the Kd [3] was 40.3 nM, the Kd [4] was 40.3 nM and the Kd [5] was 40.3 nM.

B14: G106 (antibody, V domains shown)
VH: B1 VH with V11L, P28T, M114T
VL: B1 VL with K47R, T54N, Y89F, R96S, L108V, G112R
With B14 the Kd [3] was 3.2 nM, the Kd [4] was 3.2 nM and the Kd [5] was 3.2 nM.
